Test [1] has as its target C-terminal RFP labeled ATG9.
In a further test the target is T1, canine COX-3 (Canis lupus familiaris, UniProt Q8HZR1).
T1 sequence (Q8HZR1 1-633 isoform Q8HZR1-2): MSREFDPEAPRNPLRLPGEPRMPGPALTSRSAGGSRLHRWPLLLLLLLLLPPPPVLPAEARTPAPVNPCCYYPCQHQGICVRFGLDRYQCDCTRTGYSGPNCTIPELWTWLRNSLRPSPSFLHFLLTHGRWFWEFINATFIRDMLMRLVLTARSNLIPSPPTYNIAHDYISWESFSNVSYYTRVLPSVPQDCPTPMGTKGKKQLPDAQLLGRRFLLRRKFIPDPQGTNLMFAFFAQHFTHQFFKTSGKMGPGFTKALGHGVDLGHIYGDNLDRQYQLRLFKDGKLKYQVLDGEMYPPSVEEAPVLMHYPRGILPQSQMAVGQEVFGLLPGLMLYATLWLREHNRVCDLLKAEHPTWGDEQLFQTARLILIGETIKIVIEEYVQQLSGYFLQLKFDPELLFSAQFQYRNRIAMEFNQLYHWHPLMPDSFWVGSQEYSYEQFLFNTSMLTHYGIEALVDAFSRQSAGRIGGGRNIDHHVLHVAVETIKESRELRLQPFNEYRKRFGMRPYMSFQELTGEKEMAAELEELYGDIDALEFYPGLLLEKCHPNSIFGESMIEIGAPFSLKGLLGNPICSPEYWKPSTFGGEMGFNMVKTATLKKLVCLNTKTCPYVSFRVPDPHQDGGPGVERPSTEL
As to conditions: cited from earlier work.

Test [2] relates to encephalomyocarditis virus (EMCV). Kind of test: EMCV replication in transfected CHO cells, plaque-forming assay. Format: cell-based. The note with it: compared to Empty vector. The text has this:
The rCOX constructs being related to ancient unicellular COX and evidence showing their involvement in the formation of innate immune responsive autophagic structures. EMCV is a positive strand RNA picornavirus implicated in human febrile illness. Also, the mTOR small molecule inhibitor rapamycin is shown to stimulate protein synthesis of EMCV proteins (Ref) and that autophagy specifically is shown to promote EMCV viral replication. We infected rCOX or/and cNuc transfected/co-transfected CHO cells with EMCV to determine their influence in viral replication. The media was collected and plaque forming assays were then performed and plaques were counted compared to Empty vector plaque counts.
CHO cells were seeded to the night before infection to complete confluence. Cells were washed twice with DMEM F/12 media before infection. Virus were placed on top of cells and allowed to absorb for 1 hour angling the cells every 10 minutes to ensure cells were fully covered. After adsorption the media was remove and cells washed twice with DMEM F/12 media. Agar at 2% in PBS was melted and mixed with warm DMEM/F12 with 20% FBS and then laid on top of the cells. The virus was allowed to replicate for 36 hours and then 5 mg/mL of MTT in PBS was added to visualize the cells. Plaques were counted using light microscope.

In test [1], “FLAG tagged rc44 (translationally recoded rat COX-3 44 kD protein) (from UniProt Q63921) (enzyme)” had a co-localisation by confocal microscopy (Pearson coefficient) (Pearson coefficient) of 0.928. On the same count and under the same terms, next, “FLAG tagged rc50 (translationally recoded rat COX-3 50 kD protein) (from UniProt Q63921) (enzyme)”: 0.954. `CC(=O)Nc1ccc(O)cc1` [acetaminophen]: the “effect on canine COX-3” value on canine COX-3 is given as “specifically inhibited”.

For “FLAG tagged rc57 (translationally recoded rat COX-3 57 kD protein) (from UniProt Q63921) (enzyme)”, the co-localisation by confocal microscopy (Pearson coefficient) (Pearson coefficient) in test [1] turned out to be 0.973.

B1: r57: translationally recoded 57 kD rat COX-3 protein, expressed by transfection in CHO cells (protein)
chain: MRLVITVRSNLIPSPPTYNTAHDYISWESFSNVSYYTRILPSVPKDCPTPMGTKGKKQLPDIHLLAQRLLLRREFIPGPQGTNVLFAFFAQHFTHQFFKTSGKMGPGFTKALGHGVDLGHIYGDSLERQYHLRLFKDGKLKYQVLDGEVYPPSVEQASVLMRYPPGVPPEKQMAVGQEVFGLLPGLMLFSTIWLREHNRVCDLLKEEHPTWDDEQLFQTTRLILIGETIKIIIEEYVQHLSGYFLQLKFDPELLFRAQFQYRNRIALEFNHLYHWHPLMPDSFQVGSQEYSYEQFLFNTSMLVDYGVEALVDAFSRQRAGRIGGGRNFDYHVLHVAEDVIKESREMRLQSFNEYRKRFGLKPYTSFQEFTGEKEMAAELEELYGDIDALEFYPGLMLEKCQPNSLFGESMIEMGAPFSLKGLLGNPICSPEYWKPSTFGGDVGFNIVNTASLKKLVCLNTKTCPYVSFRVPDYPGDDGSVFVRPSTEL
Regarding B1, the “inhibition of virion production” value in test [2] is given as 40%.

B2: r44: translationally recoded 44 kD rat COX-3 protein, expressed by transfection in CHO cells (protein)
chain: MGPGFTKALGHGVDLGHIYGDSLERQYHLRLFKDGKLKYQVLDGEVYPPSVEQASVLMRYPPGVPPEKQMAVGQEVFGLLPGLMLFSTIWLREHNRVCDLLKEEHPTWDDEQLFQTTRLILIGETIKIIIEEYVQHLSGYFLQLKFDPELLFRAQFQYRNRIALEFNHLYHWHPLMPDSFQVGSQEYSYEQFLFNTSMLVDYGVEALVDAFSRQRAGRIGGGRNFDYHVLHVAEDVIKESREMRLQSFNEYRKRFGLKPYTSFQEFTGEKEMAAELEELYGDIDALEFYPGLMLEKCQPNSLFGESMIEMGAPFSLKGLLGNPICSPEYWKPSTFGGDVGFNIVNTASLKKLVCLNTKTCPYVSFRVPDYPGDDGSVFVRPSTEL
Turning to B2, the “number of EMCV virions” value in test [2] is recorded as “doubled”.
